The values below are quoted from earlier work in article PMC10742151.

Where two headings read alike, the source gives them in different places.

By Kd is commonly meant a measure of binding affinity in units of concentration.

Series [1] has as its target CA125 (ovarian cancer biomarker antigen) (UniProt Q8WXI7). The following applies: AFM chip (DSP-activated APTES mica) with immobilized aptamer incubated in CA125 solution, then washed with 0.01% Emulgen 913; buffer, salt, pH and temperature ….
For series [2] the target is unchanged. The following applies: AFM chip (DSP-activated APTES mica) with immobilized aptamer incubated in CA125 solution, then washed with 0.01% Emulgen 913; buffer, salt, pH and temperature …. This is another data set of the same source.

As to “apta#3 (ATW0055, BasePair Biotechnologies)”, the dissociation constant Kd in series [1] is 33.8 nM.

Take “TAGGGAAGAGAAGGACATATGATGATCAACAACACAAGGGGGGGGGTATCTAGTTGACTAGTACATGACCACTTGA [apta#2 (apta#2.43)]”: the Kd in series [2] is 239 nM. As for “TAGGGAAGAGAAGGACATATGATTTTAGGGAAGAGAAGGACTTTTATGCCGCCTTGACTAGTACATGACCACTTGA [apta#1 (apta#2.26)]”, the Kd in series [2] is 166 nM.
